Reference: patent publication US20040253631

How the values were obtained:
[1] = molecular target: T1, Lambda integrase (Int) (bacteriophage lambda) (UniProt P03700); test: cell_activity; settings: Xis, IHF
T1 sequence: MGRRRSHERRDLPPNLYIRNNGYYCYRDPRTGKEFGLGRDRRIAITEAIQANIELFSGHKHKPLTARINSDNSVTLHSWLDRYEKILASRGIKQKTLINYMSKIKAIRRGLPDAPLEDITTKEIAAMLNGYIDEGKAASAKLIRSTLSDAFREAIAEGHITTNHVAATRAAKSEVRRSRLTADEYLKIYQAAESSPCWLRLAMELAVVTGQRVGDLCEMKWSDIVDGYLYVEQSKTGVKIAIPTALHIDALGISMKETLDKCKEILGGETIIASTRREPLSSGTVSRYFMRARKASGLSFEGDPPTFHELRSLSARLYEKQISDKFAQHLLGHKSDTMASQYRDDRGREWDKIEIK

[2] = molecular target: Cre recombinase (bacteriophage P1) (UniProt P06956); test: cell_activity; settings: background 140 without Cre; 37 C; 19/24 correct product
Chain of UniProt P06956 (P06956 whole entry): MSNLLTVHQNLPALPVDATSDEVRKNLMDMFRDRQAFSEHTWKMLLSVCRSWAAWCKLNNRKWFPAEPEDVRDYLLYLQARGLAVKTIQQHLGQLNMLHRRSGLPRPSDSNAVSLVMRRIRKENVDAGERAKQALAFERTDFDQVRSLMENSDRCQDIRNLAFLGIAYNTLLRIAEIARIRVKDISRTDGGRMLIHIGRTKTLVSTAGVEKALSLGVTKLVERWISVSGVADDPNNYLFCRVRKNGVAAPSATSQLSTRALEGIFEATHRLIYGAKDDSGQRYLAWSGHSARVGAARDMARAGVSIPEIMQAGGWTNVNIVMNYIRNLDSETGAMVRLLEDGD

Substance | activity ([1]; partner attR'1 (N5), Cre, background 1) | activity ([1]; partner attR'2 (N6), Cre) | activity ([1]; partner attR'wt, Cre (loxP for second recombination), background 1) | activity [2]
attL wt | 4 colonies | 0 colonies | 147 colonies | 
loxP / loxP 511 plasmids |  |  |  | 760 colonies
